Two molecules from publication PMC10245032 (EMBO Molecular Medicine, 2023) can be followed below.

Details in all cases: both partners purified
Test [1] deals with T1, PfCSP C‐linker peptide (aa 273–310) (Plasmodium falciparum NF54, UniProt P19597).
T1 construct: Plasmodium falciparum NF54 circumsporozoite protein, C-linker, aa 273–310; source: synthetic peptide (PSL Peptide Specialty Laboratories GmbH)
T1 chain: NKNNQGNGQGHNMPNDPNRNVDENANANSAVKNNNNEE
Put plainly: ELISA; antigen coated on 384-well plates overnight at 4°C in PBS (full-length PfCSP 0.4 μg/ml, C-CSP 1 μg/ml, peptides 2 μg/ml); mAb from 4 μg/ml in PBS, RT 1.5 h; detected with anti-human IgG-HRP; AUC. In general terms: In an ELISA, binding on a coated surface is turned into a signal by an enzyme label.

The target in test [2] is T2, PfCSP C‐terminal domain (C‐CSP), NF54 (Plasmodium falciparum NF54, UniProt P19597).
T2 construct: Plasmodium falciparum NF54 circumsporozoite protein, C-terminal domain made of the C-linker (aa 273–310) and the α-TSR domain (aa 311–384); also called C‐CSP peptide; PfCSP C terminus; source: E. coli, by the EMBL protein expression and purification core facility
The description is as above.

Test [3] concerns the target T3, full‐length PfCSP (FL‐CSP), NF54 (Plasmodium falciparum NF54).
T3 construct: Plasmodium falciparum NF54 circumsporozoite protein, called full-length; source: FL-CSP expressed in E. coli by the EMBL core facility; a biotinylated NF54 FL-CSP was expressed in HEK293F and purified (HisTrap HP, SEC)
The test is described as above.

The target in test [4] is T4, PfCSP C‐terminal linker peptide P2 (PfCSP 281–294) (Plasmodium falciparum NF54).
T4 construct: Plasmodium falciparum NF54 circumsporozoite protein (PfCSP), aa 281–294 of the C-linker; One of 14 overlapping peptides (P1-P14); also called C‐CSP peptide; source: synthetic peptide (PSL Peptide Specialty Laboratories GmbH)
T4 chain: QGHNMPNDPNRNVD
Described as above.

Test [5] concerns the target T4, PfCSP C‐terminal linker peptide P2 …. As to the kind of experiment: crystal structure; 3764 Fab and PfCSP 281-294 peptide mixed 1:3; 19% isopropanol, 19% PEG 4000, 5% glycerol, 0.095 M sodium citrate pH 5.6; 2.36 Å.

B1: mAb 3764 (recombinant human IgG1) (antibody, V domains shown)
VH: QVQLVESGGGVVQPGRSLRLSCAASGFTFSSYGMHWVRQAPGKGLEWVAVIWYDGSYKSYIESVKGRFTISRDNSKNTLYLQMNSLRVEDTAVYYCALGYSSGQGTLDNWGQGTLVTVSS
VL: DVVMTQSPLSLAVTLGQPASISCRSTQSLVYSDGNTYLNWFQQRPGQSPRRLIYKVSNRDSGVPDRFSGSESGTDFTLKISRVEAEDVGLYYCMQGTHWPWTFGQGTKVEIK
notes: heavy chain variable region of mAb 3764 (IGHV3-33); human IgG1 constant region from the IGHG1 expression vector; kappa chain variable region of mAb 3764; human Ig kappa constant region from the IGKC expression vector; IgG1; Somatic mutations H.N56Y and H.Y58S against germline are already part of the antibody; also called C‐linker specific mAb 3764; source: HEK293T, co-transfected, purified from …
For the molecule B1, the binding result in test [1], in test [2], in test [3] and in test [4] was “binds” in each case.

B2: 3764 Fab (Fab, V domains shown)
VH: B1 VH
VL: B1 VL
notes: mAb 3764 heavy chain variable region upstream of human IgG1-CH1; mAb 3764 kappa chain variable region upstream of human IgK constant domain; also called mAb 3764 Fab; source: HEK293F, transiently co-transfected, purified (Kappa-select, MonoS cation exchange, Superdex 200 SEC)
Turning to B2, the binding result in test [5] was “binds”.
